Laboratory results reported in PMC11413682 (2024).

B1: CUL2^ZYG11B (residues 490–728) (domain or fragment)
chain: ELFIVRQLLQIVKQKTNQNSVDTTLKFTLSALWNLTDESPTTCRHFIENQGLELFMRVLESFPTESSIQQKVLGLLNNIAEVQELHSELMWKDFIDHISSLLHSVEVEVSYFAAGIIAHLISRGEQAWTLSRSQRNSLLDDLHSAILKWPTPECEMVAYRSFNPFFPLLGCFTTPGVQLWAVWAMQHVCSKNPSRYCSMLIEEGGLQHLYNIKDHEHTDPHVQQIAVAILDSLEKHIVR

Assays:
SNX11-degron peptide [1] = test: ITC
SNX11-degron peptide [2] = test: ITC; pre-formed ZYG11B/ORF10 N5 peptide complex
[3] = biological target: B1; test: ITC
[4] = biological target: B1; test: ITC; remark: listed apart in the source

| Binder | Ka [3] [M⁻¹] | further results |
| --- | --- | --- |
| B1 | – | Kd (SNX11-degron peptide [1]): 0.4 µM; Kd (SNX11-degron peptide [2]): 5.23 µM |
| GYINV [SARS-CoV-2 ORF10 N5 peptide] | 340000 | – |
| GYIN [SARS-CoV-2 ORF10 N4 peptide] | 193000 | – |
| GY [SARS-CoV-2 ORF10 N2 peptide] | – | Kd [4]: > 200 µM |
| GYI [SARS-CoV-2 ORF10 N3 peptide] | 69100 | – |
